Data on one molecule can be found in patent EP1615032A1 (Kido, Hiroshi, dated 2006).

This assay has as its target T1, purified mouse VDAC protein (mouse, UniProt Q3U6K8 2-283).
T1 construct: Used as a 100 ng/ml solution over dot-blotted ligands; also called voltage-dependent anion channel
Briefly: dot blot on nitrocellulose; bound VDAC detected with anti-VDAC antibody and ECL.

B1: human microplasmin (enzyme, UniProt P00747 550-810, looked up)
chain: KLYDYCDVPQCAAPSFDCGKPQVEPKKCPGRVVGGCVAHPHSWPWQVSLRTRFGMHFCGGTLISPEWVLTAAHCLEKSPRPSSYKVILGAHQEVNLEPHVQEIEVSRLFLEPTRKDIALLKLSSPAVITDKVIPACLPSPNYVVADRTECFITGWGETQGTFGAGLLKEAQLPVIENKVCNRYEFLNGRVQSTELCAGHLAGGTDSCQGDSGGPLVCFEKDKYILQGVTSWGLGCARPNKPGVYVRVSRFVTWIEGVMRNN
notes: 50 ng dot blotted onto a nitrocellulose membrane; also called microplasmin having no Kringle domain
Consider B1, for which the binding result was “no binding”.
